Measured values from patent publication US20120219559A1 (Johns Hopkins, published 2012).

T1: human B7-1 (CD80) expressed on 293T cells (human, UniProt P33681 35-288)
T1 construct: whole, on cells
T1 sequence (looked up): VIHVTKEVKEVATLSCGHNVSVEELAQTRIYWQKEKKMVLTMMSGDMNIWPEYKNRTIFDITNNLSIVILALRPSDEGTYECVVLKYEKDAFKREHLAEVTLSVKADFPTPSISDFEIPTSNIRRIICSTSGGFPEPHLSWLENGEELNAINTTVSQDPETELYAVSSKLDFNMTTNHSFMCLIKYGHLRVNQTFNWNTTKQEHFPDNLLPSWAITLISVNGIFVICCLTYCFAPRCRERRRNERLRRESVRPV

T2: human B7-DC expressed on 293T cells (human, UniProt Q9BQ51 20-273)
T2 construct: whole, on cells
T2 sequence (looked up): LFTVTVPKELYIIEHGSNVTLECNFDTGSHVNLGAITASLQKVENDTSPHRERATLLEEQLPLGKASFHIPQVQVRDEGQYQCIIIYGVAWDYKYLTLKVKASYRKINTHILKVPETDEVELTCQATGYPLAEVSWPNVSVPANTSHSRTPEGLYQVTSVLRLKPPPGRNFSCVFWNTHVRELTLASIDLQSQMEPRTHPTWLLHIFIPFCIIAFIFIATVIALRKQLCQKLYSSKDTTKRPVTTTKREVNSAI

T3: human B7-2 (CD86, B70) expressed on 293T cells (human, UniProt P42081 24-329)
T3 construct: whole, on cells
T3 sequence (looked up): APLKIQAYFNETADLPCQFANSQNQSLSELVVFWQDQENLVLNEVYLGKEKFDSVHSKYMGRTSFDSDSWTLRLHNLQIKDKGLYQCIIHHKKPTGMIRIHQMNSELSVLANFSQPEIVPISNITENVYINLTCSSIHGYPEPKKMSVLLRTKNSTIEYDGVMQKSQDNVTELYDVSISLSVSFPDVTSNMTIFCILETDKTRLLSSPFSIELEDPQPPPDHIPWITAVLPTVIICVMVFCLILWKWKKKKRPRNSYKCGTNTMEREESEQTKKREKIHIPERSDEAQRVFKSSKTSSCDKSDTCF

T4: human B7-H2, full length, expressed on cells (B7-H2+293T cells) (human, UniProt O75144 19-302)
T4 construct: This id also stands for endogenous B7-H2 on monocyte-derived dendritic cells in the functional rows; also called ICOSL; ICOSLG
T4 sequence: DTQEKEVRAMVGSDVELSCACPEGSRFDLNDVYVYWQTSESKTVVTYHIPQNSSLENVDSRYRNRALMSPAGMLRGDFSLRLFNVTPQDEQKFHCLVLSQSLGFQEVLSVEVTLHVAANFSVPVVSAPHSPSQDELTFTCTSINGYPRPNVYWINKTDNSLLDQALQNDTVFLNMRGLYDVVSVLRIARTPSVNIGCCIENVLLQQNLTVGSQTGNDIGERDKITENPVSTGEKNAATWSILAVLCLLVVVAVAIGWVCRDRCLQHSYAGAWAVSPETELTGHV

T5: B7-DCIg (Homo sapiens, UniProt Q9BQ51)
T5 construct: Ig fusion protein purchased from R&D systems; also called human B7-DCIg fusion protein
T5 sequence (fusion protein, looked up): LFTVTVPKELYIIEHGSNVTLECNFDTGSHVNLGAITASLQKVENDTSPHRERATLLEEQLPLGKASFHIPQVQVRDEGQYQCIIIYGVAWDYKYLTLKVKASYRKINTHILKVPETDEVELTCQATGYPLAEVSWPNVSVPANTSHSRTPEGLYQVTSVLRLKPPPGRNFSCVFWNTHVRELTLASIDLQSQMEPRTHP

T6: human B7-1Ig fusion protein (human, UniProt P33681 35-242)
T6 construct: Bought from R&D Systems; Ig (Fc) part not given
T6 sequence (looked up): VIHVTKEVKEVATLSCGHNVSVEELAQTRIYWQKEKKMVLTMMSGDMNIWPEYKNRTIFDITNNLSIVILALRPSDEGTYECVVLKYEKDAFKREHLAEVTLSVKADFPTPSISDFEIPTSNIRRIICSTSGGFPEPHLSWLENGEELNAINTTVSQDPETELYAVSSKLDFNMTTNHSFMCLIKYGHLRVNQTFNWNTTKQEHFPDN

T7: human B7-H2Ig fusion protein (human, UniProt O75144 19-258)
T7 construct: Ig (Fc) part not given
T7 sequence: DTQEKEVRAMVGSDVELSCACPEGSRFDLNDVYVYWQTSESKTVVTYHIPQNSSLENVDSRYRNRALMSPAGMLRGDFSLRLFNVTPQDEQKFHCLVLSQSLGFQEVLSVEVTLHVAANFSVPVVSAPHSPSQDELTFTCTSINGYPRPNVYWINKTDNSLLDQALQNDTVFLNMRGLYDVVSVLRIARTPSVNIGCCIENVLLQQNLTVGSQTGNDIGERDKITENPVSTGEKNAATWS

T8: human B7-H3, 4Ig form, expressed on 293T cells (human, UniProt Q5ZPR3 29-534)
T8 construct: whole, on cells
T8 sequence (looked up): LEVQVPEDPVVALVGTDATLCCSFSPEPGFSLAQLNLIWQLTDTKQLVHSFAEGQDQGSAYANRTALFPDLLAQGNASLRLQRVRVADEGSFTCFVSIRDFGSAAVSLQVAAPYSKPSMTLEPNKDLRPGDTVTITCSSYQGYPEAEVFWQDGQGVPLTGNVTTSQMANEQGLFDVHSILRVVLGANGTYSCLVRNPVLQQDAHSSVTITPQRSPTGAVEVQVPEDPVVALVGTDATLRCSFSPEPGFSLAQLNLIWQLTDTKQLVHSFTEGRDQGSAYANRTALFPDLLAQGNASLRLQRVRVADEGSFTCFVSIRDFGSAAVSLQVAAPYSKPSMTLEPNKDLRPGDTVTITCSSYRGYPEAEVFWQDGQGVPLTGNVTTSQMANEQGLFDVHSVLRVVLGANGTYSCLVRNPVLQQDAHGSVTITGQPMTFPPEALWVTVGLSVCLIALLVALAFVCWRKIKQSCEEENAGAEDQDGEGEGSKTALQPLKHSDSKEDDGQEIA

T9: human B7-H7, full length, expressed on transfected cells (B7-H7+ cells) (human, UniProt Q9UM44 23-414)
T9 construct: also called HHLA2
T9 sequence: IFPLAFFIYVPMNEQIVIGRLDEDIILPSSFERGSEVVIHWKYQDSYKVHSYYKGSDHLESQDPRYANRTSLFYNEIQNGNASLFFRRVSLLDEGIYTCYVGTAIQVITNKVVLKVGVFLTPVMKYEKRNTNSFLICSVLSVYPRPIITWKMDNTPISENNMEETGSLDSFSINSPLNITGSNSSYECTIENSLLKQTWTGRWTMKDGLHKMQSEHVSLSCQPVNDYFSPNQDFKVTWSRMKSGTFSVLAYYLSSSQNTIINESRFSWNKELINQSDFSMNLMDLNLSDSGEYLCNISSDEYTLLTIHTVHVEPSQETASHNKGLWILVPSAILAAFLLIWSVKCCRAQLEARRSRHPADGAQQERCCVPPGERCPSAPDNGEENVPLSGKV

T10: human B7-H4 expressed on 293T cells (human, UniProt Q7Z7D3 25-282)
T10 construct: whole, on cells
T10 sequence (looked up): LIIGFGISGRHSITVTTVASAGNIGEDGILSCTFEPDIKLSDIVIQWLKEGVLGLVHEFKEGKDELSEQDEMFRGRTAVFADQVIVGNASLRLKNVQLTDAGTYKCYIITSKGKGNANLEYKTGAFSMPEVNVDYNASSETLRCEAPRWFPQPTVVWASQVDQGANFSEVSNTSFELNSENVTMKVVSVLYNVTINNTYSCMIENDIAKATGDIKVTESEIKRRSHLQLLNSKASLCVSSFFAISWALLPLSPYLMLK

T11: human B7-H3, 2Ig form, expressed on 293T cells (human, UniProt Q5ZPR3-2 29-316)
T11 construct: whole, on cells
T11 sequence (looked up): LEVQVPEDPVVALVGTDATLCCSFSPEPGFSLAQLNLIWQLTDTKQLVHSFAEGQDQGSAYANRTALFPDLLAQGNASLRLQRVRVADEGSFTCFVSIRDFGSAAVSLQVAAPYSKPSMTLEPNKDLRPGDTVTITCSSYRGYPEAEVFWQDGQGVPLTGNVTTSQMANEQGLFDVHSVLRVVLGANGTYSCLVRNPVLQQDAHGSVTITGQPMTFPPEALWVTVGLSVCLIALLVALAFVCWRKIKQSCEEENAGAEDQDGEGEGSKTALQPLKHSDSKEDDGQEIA

B1: human B7-2Ig fusion protein (Fc fusion, UniProt P42081 26-245, looked up)
chain: LKIQAYFNETADLPCQFANSQNQSLSELVVFWQDQENLVLNEVYLGKEKFDSVHSKYMGRTSFDSDSWTLRLHNLQIKDKGLYQCIIHHKKPTGMIRIHQMNSELSVLANFSQPEIVPISNITENVYINLTCSSIHGYPEPKKMSVLLRTKNSTIEYDGVMQKSQDNVTELYDVSISLSVSFPDVTSNMTIFCILETDKTRLLSSPFSIELEDPQPPPDH
notes: Bought from R&D Systems; Ig (Fc) part not given
B2: human ICOS, full length, expressed on cells (ICOS+293T cells) (receptor)
chain: EINGSANYEMFIFHNGGVQILCKYPDIVQQFKMQLLKGGQILCDLTKTKGSGNTVSIKSLKFCHSQLSNNSVSFFLYNLDHSHANYYFCNLSIFDPPPFKVTLTGGYLHIYESQLCCQLKFWLPIGCAAFVVVCILGCILICWLTKKKYSSSVHDPNGEYMFMRAVNTAKKSRLTDVTL
notes: This id also stands for ICOS on human T cells in the functional rows
B3: human B7-H7CRIg fusion protein (Fc fusion)
chain: LSVQQGPNLLQVRQGSQATLVCQVDQATAWERLRVKWTKDGAILCQPYITNGSLSLGVCGPQGRLSWQAPSHLTLQLDPVSLNHSGAYVCWAAVEIPELEEAEGNITRLFVDPDDPTQNRNRIASFPG
notes: also called B7-H67CRIg; not shown: Ig Fc tag; made from pMIgV or pHIgV plasmid

What was measured:
[1] = molecular target: T1, human B7-1 (CD80) expressed on 293T …; assay: CDS well image, 293T cells transfected with the human gene, stained with the human fusion protein
[2] = molecular target: T12, human B7-H1 expressed on 293T cells (human, UniProt Q9NZQ7 19-290); assay: as above
T12 construct: whole, on cells
T12 sequence (Q9NZQ7 19-290): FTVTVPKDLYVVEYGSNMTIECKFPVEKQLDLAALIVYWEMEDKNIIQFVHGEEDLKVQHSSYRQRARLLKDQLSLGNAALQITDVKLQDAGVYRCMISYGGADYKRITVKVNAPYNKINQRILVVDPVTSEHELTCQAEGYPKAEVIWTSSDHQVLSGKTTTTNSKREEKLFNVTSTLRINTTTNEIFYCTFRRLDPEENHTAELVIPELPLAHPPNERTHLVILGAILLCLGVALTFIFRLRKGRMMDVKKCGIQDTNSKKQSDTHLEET

[3] = molecular target: T2, human B7-DC expressed on 293T cells; assay: as above
[4] = molecular target: T3, human B7-2 (CD86, B70) expressed on …; assay: as above
[5] = molecular target: T4, human B7-H2, full length, expressed on …; assay: flow cytometry on 293T cells transfected with full length human B7-H2; B7-2Ig alone
B7-DCIg = molecular target: T5, B7-DCIg; assay: CDS well image, 293T cells transfected with the human gene, stained with the human fusion protein
[6] = molecular target: T6, human B7-1Ig fusion protein; assay: as above
[7] = molecular target: B1; assay: as above
B7-H1Ig = molecular target: T13, B7-H1Ig (Homo sapiens, UniProt Q9NZQ7); assay: as above
T13 construct: Ig fusion protein purchased from R&D systems; also called human B7-H1Ig fusion protein
T13 sequence (Q9NZQ7 19-239 limits assumed): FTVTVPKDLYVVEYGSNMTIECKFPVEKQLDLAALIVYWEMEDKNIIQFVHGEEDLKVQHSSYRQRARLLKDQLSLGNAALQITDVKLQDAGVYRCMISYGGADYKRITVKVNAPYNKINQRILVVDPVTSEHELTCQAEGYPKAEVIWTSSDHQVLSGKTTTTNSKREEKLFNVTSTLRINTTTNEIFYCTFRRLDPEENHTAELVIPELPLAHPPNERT

[8] = molecular target: T7, human B7-H2Ig fusion protein; assay: flow cytometry on 293T cells transfected with human ICOS
[9] = molecular target: T8, human B7-H3, 4Ig form, expressed on …; assay: flow cytometry on 293T cells transfected with B7-H3 (4Ig)
[10] = molecular target: T9, human B7-H7, full length, expressed on …; assay: flow cytometry on B7-H7 transfected cells (sheet: B7-H7+ 293T; legend: CHO cells); B7-H7CRIg at 10 µg/ml
[11] = molecular target: T1, human B7-1 (CD80) expressed on 293T …; assay: flow cytometry on 293T cells transfected with B7-1
[12] = molecular target: T4, human B7-H2, full length, expressed on …; assay: flow cytometry on 293T cells transfected with B7-H2
[13] = molecular target: T10, human B7-H4 expressed on 293T cells; assay: flow cytometry on 293T cells transfected with B7-H4
[14] = molecular target: T12, human B7-H1 expressed on 293T cells; assay: flow cytometry on 293T cells transfected with B7-H1
[15] = molecular target: T2, human B7-DC expressed on 293T cells; assay: flow cytometry on 293T cells transfected with B7-DC
[16] = molecular target: T11, human B7-H3, 2Ig form, expressed on …; assay: flow cytometry on 293T cells transfected with B7-H3 (2Ig)
[17] = molecular target: T3, human B7-2 (CD86, B70) expressed on …; assay: flow cytometry on 293T cells transfected with B7-2

Binder: B1
- binding result [1]: no binding
- binding result [2]: no binding
- binding result [3]: no binding
- binding result [4]: no binding
- binding result [5]: no binding

Binder: B2
- binding result (B7-DCIg): no binding
- binding result [6]: no binding
- binding result [7]: no binding
- binding result (B7-H1Ig): no binding
- binding result [8]: binds

Binder: B3
- binding result [9]: no binding (tested: 10 µg/ml)
- binding result [10]: binds
- binding result [11]: no binding (tested: 10 µg/ml)
- binding result [12]: no binding (tested: 10 µg/ml)
- binding result [13]: no binding (tested: 10 µg/ml)
- binding result [14]: no binding (tested: 10 µg/ml)
- binding result [15]: no binding (tested: 10 µg/ml)
- binding result [16]: no binding (tested: 10 µg/ml)
- binding result [17]: no binding (tested: 10 µg/ml)
